# Assay results published in patent US20210253734A1.
# Key:
# [1] = molecular target: human Trypsin (Sigma) (human) (UniProt P07477); test: cell-based or functional assay
# [2] = molecular target: AS-SPIK (Abnormal Secreted serine protease inhibitor Kazal), purified or partially purified from the medium of S2-3 cells (human) (UniProt P00995); test: cell-based or functional assay
"inhibition of trypsin digestion of 1 uM BML (Boc-Gln-Ala-Arg-AMC) after 60 minutes, 3 nM AS-SPIK and 2 ng/ml trypsin [1] [%]","restoration of Trypsin activity (inhibition of AS-SPIK activity) at 60 minutes, 1 ug/ml IM-CA22 pre-incubated with 3 nM AS-SPIK [2] [%]",Molecule
70,–,"AS-SPIK (Abnormal Secreted serine protease inhibitor Kazal), purified or partially purified from the medium of S2-3 cells (from UniProt P00995 24-79)"
–,> 60,"monoclonal antibody IM-CA22 (antibody, V domains shown) VH: QIQLQQSGPELVKPGTSVKLSCKASGYTFTDYYINWVKQRPGQGLEWIGWIYPGSGNPIYNENFKDKATLTVDTSSTTAYLQLSSLTSEDSAVYFCAREWGCAMDSWGQGTSVTVSS VL: DIVMTQSPSSLSVSTGEKVTMSCKSSQSLLNSGNQKNYLAWYQQKPGQSPKLLIYGASTRESGVPDRFTGSGSGTEFTLTISSVQAEDLAVYYCQSDYSHPYTFGGGTKLEIK"
